Experimental data taken from US20200199554A1 (KATHOLIEKE UNIVERSITEIT LEUVEN, published 2020).

Molecular target: the molecule itself
Experiment: zymogram (SDS-PAGE gel with embedded fish sperm DNA, renatured); self-association, dimer band
Experimental: In addition, the nuclease activity was confirmed by zymography. […] Then, the gel was washed three times for 5 min in mQ and incubated for 48 h in zymogram renaturation buffer (150 mM NaH₂PO₄ pH 7, 10 mM MgCl₂ and 0.1% Triton X-100), which allowed the proteins to refold to their native state. Finally, the gel was stained for 20 min in 0.5 μg/ml ethidium bromide and destained for 20 min in the zymogram renaturation buffer. After staining with ethidium bromide, the enzymes with nuclease activity were visible as non-fluorescent bands using an UV transilluminator. The impact of boiling on the renaturing capacity of Gp5 was tested by loading both preboiled (10 min, 95° C.) and non-preboiled samples. Clear bands were observed around 8-9 kDa, indicating the nuclease activity of Gp5 (MW=8.5 KDa) (for details see FIG. 4). […] Despite the small fraction of Gp5 that is present as a dimer on the zymogram, this dimer:monomer ratio is not necessarily present in vivo. After all, SDS is an anionic surfactant, negatively charging proteins to allow a separation based on the molecular weight in SDS-PAGE. This step generally involves also the disintegration of dimers into monomers. The removal of SDS in the renaturation step, might allow Gp5 to reassociate into dimers.
Clear bands were observed around 8-9 kDa in all samples, indicating the presence of Gp5. […] The protein concentrations are shown on the top.

B1: LUZ19_Gp5 (untagged, purified) (enzyme)
chain: MSSRDPYRIGHRVGLVNYSDRYLGADAAGTKGTIEAITRPSRCMTIYHVRCERTLRLIEAEARNVRFIRQRAER
notes: A few linker residues may remain at the N-terminus; also called Phage LUZ19 gp5; miniDNase
**Q.** Does B1 bind?
**A.** Result: binds
